Test [1] concerns the target T1, CD163 on CD14+ peripheral blood monocytes (Homo sapiens, UniProt Q86VB7).
T1 construct: endogenous in cells; host or cells: human peripheral blood monocytes, monocyte-derived macrophages, blood dendritic cells
Briefly: Quantitative flow cytometry of monocyte surface CD163 expression with different anti-CD163 clones. It is filed as cell-based. The method, then: Freshly drawn peripheral whole blood samples or PBMC (approx. 3×10^6 cells) were stained with isotype-matched control antibody or a relevant antibody for one hour at 4° C. in the dark. When staining whole blood, erythrocytes were lysed for 15 min with 4° C. cold solution of ammonium chloride. When indirect immunofluoresence staining was required, cells were initially incubated with unconjugated primary CD163 antibody for one hour at 4° C., washed three times with D-PBS, pH 7.4, followed by incubation with goat anti-mouse-conjugated Alexa-Fluor® 488 (1:200 dilution; Molecular Probes, Invitrogen, Carlsbad, Calif., USA) for one hour at 4° C. in the dark. The stained cells were washed twice three D-PBS, pH 7.4, re-suspended in 400 μl FACSflow (Becton Dickinson, San Jose, Calif., USA), and kept on ice until analysis. All samples were analyzed using a FACSCalibur flow cytometer and compensated for spectral overlap using FlowJo for Macintosh software version 8.3 (TreeStar, San Carlos, Calif.). For CD163 density quantitation, flow cytometric estimation of antibodies bound/cell (ABCs) was performed using Quantibrite PE beads (Becton Dickinson, San Jose, Calif., USA) as recommended by the manufacturer. After the cells were stained, as detailed, a set of 4 pre-calibrated fluorescently labeled beads was used for standardization before the samples were acquired. The Quantibrite PE beads were run at the same instrument settings as the assay, and the linear regression obtained using the Quantibrite PE beads was used to convert the FL2 linear fluorescence staining of cell population into the number of (CD163) PE molecules bound per cell (ABC).

Test [2] addresses recombinant CD163 immobilized on a Biacore chip (Homo sapiens, UniProt Q86VB7). Briefly: Surface plasmon resonance (Biacore) analysis of mAb binding to immobilized CD163. The settings on record: 5 μg/ml. As to the method: SPR analysis of the binding of mAbs to CD163 was carried out on a Biacore 2000 instrument (Biacore, Uppsala, Sweden). The Biacore sensor chips (type CM5) were activated with a 1:1 mixture of 0.2 M N-ethyl-N′-(3-dimethylaminopropyl) carbodiimide and 0.05 M N-hydroxysuccimide in water. Purified recombinant CD163 were immobilized in 10 mM sodium acetate, pH 4.0, and the remaining binding sites were blocked with 1 M ethanolamine, pH 8.5. The SPR signal generated from immobilized recombinant CD163 proteins corresponded to 40-70 fmol of protein/mm^2. Sensorgrams were generated using mAb concentrations ranging from 5-100 nM. The flow cells were regenerated with 1.6 M glycine-HCl, pH 3. The running buffer used for the experiment was either CaHBS 10 mM Hepes, 150 mM NaCl, 3.0 mM CaCl2, 1.0 mM EGTA, and 0.005% Tween 20, pH 7.4. or 10 mM Hepes, 150 mM NaCl, 3.0 mM EDTA, and 0.005% Tween 20, pH 7.4, mAb samples were dissolved in the same buffer as the running buffer used. All binding data were analyzed using the Biamolecular Interaction Analysis evaluation program version 3.1.
SPR analysis of the binding of mAbs to CD163 was carried out on a Biacore 2000 instrument (Biacore, Uppsala, Sweden). […] All binding data were analyzed using the Biamolecular Interaction Analysis evaluation program version 3.1.
A general note: In SPR one partner is held on a chip, and binding of the other changes the refractive index at the surface.

Test [3] deals with LPS induction of TNF production in human in vitro matured macrophages. Briefly: Dexamethasone treatment of cultivated pro-inflammatory macrophages, soluble TNF by cytometry bead array. The settings on record: without dexamethasone; results not shown. In kind it is cell-based. As to the method: Monocytes were resuspended in RMPI 1640 medium (Sigma-Aldrich, Brondby, Denmark) containing 20% fetal calf serum (FCS) supplemented with 100 ng/ml M-CSF (GenScript Corporation, New Jersey, USA) and pencillin/streptomycin (pen/strep) for 7 days. The first 3 days in Tissue Culture Flasks at 37° C. and 5% CO2. The monocytes were then detached from the flask by flushing and scraping. The monocytes were divided into smaller portions and further grown for four days. […] cells per well were grown in 96 well tissue culture plates for TNF CBA use.
Subsequently, the macrophages were activated in RMPI 1640 containing 5% FCS, 1 ug/ml lipopolysaccaride (LPS) (Sigma-Aldrich, Brøondby, Denmark) and 20 ng/ml INF-gamma (Genscript Corporation, New Jersey, USA) for 18 hours making them pro-inflammatory.
The pro-inflammatory macrophages were stimulated with RMPI160, 5% FCS, 1 ug/ml LPS and 20 ng/ml INF-gamma containing either dexamethasone, Ab-dexamethasone or no drug.
To detect the change in soluble TNF-alpha concentration we used the Cytometry Bead Array Kit (BD Biosciences, New Jersey, USA). The media from the in vitro stimulated macrophages (described earlier) grown in 96 well tissue culture plates were analyzed according to the manufacturer's protocol.

Values joined by “and” are separate entries in the source; they are usually repeats but may differ in a detail not shown here. Equal values may be shown once.

T1 sequence (Q86VB7 42-1156): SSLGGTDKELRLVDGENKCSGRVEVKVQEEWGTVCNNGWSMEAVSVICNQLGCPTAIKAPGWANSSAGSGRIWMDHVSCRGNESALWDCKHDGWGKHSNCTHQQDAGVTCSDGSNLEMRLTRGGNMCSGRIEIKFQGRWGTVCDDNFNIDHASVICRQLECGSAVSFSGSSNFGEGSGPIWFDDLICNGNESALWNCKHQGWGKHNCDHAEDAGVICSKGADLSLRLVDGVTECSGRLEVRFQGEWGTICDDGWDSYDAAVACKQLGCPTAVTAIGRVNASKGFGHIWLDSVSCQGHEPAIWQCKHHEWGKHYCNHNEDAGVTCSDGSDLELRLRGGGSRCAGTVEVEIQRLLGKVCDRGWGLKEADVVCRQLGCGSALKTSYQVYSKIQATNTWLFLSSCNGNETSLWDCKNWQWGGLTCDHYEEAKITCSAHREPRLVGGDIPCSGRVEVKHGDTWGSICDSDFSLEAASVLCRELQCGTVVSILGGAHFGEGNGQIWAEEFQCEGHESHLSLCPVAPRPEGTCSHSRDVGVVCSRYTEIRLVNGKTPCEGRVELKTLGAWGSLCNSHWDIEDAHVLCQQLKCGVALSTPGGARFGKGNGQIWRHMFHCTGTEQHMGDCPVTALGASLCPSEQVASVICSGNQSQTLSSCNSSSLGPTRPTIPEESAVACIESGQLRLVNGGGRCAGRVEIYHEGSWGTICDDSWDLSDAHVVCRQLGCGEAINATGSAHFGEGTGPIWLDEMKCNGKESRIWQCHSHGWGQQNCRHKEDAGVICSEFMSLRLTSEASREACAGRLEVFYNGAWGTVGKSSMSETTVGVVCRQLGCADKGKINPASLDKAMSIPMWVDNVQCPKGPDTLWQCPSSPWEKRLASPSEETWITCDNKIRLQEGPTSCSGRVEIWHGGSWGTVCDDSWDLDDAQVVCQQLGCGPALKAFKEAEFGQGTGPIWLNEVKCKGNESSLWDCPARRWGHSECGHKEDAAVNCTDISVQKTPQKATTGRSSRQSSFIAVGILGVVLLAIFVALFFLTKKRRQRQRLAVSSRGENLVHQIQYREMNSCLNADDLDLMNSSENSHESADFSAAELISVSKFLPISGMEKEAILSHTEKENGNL
recombinant CD163 immobilized on a Biacore chip, sequence (Q86VB7 42-1156): as above

B1: Mac2-158: murine anti-human CD163 mAb binding SRCR domain 1; VH SEQ ID NO:20, VL SEQ ID NO:21; IQ Products (antibody, V domains shown)
VH: DVQLQESGPGLVKPSQSLSLTCTVTGYSITSDYAWNWIRQFPGNKLEWMGYITYSGITNYNPSLKSQISITRDTSKNQFFLQLNSVTTEDTATYYCVSGTYYFDYWGQGTTLTVSS
VL: SVVMTQTPKSLLISIGDRVTITCKASQSVSSDVAWFQQKPGQSPKPLIYYASNRYTGVPDRFTGSGYGTDFTFTISSVQAEDLAVYFCGQDYTSPRTFGGGTKLEIKRA
modifications: Mac2-158 VH sequence; Mac2-158 VL sequence
notes: IQ Products
With B1, the “density of CD163 receptors per monocyte” value in test [1] (citrate stabilized whole blood) is given as 17,726; in test [1] (heparin stabilized whole blood), 18,929. In addition, the “fraction of CD14+ monocytes stained positive for CD163” value in test [1] (citrate stabilized whole blood) is 83.97%; in test [1] (freshly drawn EDTA stabilized whole blood), 84.06% and 87.23%; in test [1] (heparin stabilized whole blood) it was 84.43%. Also, the “affinity for human CD163, KN2/NRY compared with Mac2-158” value in test [2] was “Virtually similar affinities”. The effect on macrophages result in test [3] was “no effect different from buffer”.

These data come from patent US9724426B2, “Agents, uses and methods” (AFFINICON APS, priority 2009, dated 2017).
